Kd data for one molecule are collected here from PMC4497506 (Journal of medicinal chemistry, 2015).

For this assay, the target named is wild-type HIV-1 YU-2 Env gp120, soluble monomeric (HIV-1 YU-2, UniProt P35961).

B1: mAb F105 (antibody, V domains shown)
VH: QVQLQESGPGLVKPSETLSLTCTVSGGSISSHYWSWIRQSPGKGLQWIGYIYYSGSTNYSPSLKSRVTISVETAKNQFSLKLTSMTAADTAVYYCARGPVPAVFYGDYRLDPWGQGTLVTVSS
VL: EIVLTQSPGTLSLSAGERATLSCRASQSVSSRYLAWYQQKPGQAPRLLIYGASSRATGIPDRFSGSGSGTDFTLTISRVEPEDFAVYYCQQYDNSVCTFGQGTKLEIK
In general, Kd refers to the concentration at which binding is half-saturated. Higher therefore signals a looser complex. B1: the Kd was determined as 24 nM.
